# Test results as given in paper PMC3656483 (Cell, 2013).
# B1: Cullin-associated and neddylation-dissociated protein 1 (Cand1) (natural protein, UniProt Q86VP6 1-1230, looked up)
# chain: MASASYHISNLLEKMTSSDKDFRFMATNDLMTELQKDSIKLDDDSERKVVKMILKLLEDKNGEVQNLAVKCLGPLVSKVKEYQVETIVDTLCTNMLSDKEQLRDISSIGLKTVIGELPPASSGSALAANVCKKITGRLTSAIAKQEDVSVQLEALDIMADMLSRQGGLLVNFHPSILTCLLPQLTSPRLAVRKRTIIALGHLVMSCGNIVFVDLIEHLLSELSKNDSMSTTRTYIQCIAAISRQAGHRIGEYLEKIIPLVVKFCNVDDDELREYCIQAFESFVRRCPKEVYPHVSTIINICLKYLTYDPNYNYDDEDEDENAMDADGGDDDDQGSDDEYSDDDDMSWKVRRAAAKCLDAVVSTRHEMLPEFYKTVSPALISRFKEREENVKADVFHAYLSLLKQTRPVQSWLCDPDAMEQGETPLTMLQSQVPNIVKALHKQMKEKSVKTRQCCFNMLTELVNVLPGALTQHIPVLVPGIIFSLNDKSSSSNLKIDALSCLYVILCNHSPQVFHPHVQALVPPVVACVGDPFYKITSEALLVTQQLVKVIRPLDQPSSFDATPYIKDLFTCTIKRLKAADIDQEVKERAISCMGQIICNLGDNLGSDLPNTLQIFLERLKNEITRLTTVKALTLIAGSPLKIDLRPVLGEGVPILASFLRKNQRALKLGTLSALDILIKNYSDSLTAAMIDAVLDELPPLISESDMHVSQMAISFLTTLAKVYPSSLSKISGSILNELIGLVRSPLLQGGALSAMLDFFQALVVTGTNNLGYMDLLRMLTGPVYSQSTALTHKQSYYSIAKCVAALTRACPKEGPAVVGQFIQDVKNSRSTDSIRLLALLSLGEVGHHIDLSGQLELKSVILEAFSSPSEEVKSAASYALGSISVGNLPEYLPFVLQEITSQPKRQYLLLHSLKEIISSASVVGLKPYVENIWALLLKHCECAEEGTRNVVAECLGKLTLIDPETLLPRLKGYLISGSSYARSSVVTAVKFTISDHPQPIDPLLKNCIGDFLKTLEDPDLNVRRVALVTFNSAAHNKPSLIRDLLDTVLPHLYNETKVRKELIREVEMGPFKHTVDDGLDIRKAAFECMYTLLDSCLDRLDIFEFLNHVEDGLKDHYDIKMLTFLMLVRLSTLCPSAVLQRLDRLVEPLRATCTTKVKANSVKQEFEKQDELKRSAMRAVAALLTIPEAEKSPLMSEFQSQISSNPELAAIFESIQKDSSSTNLESMDTS
# B2: Cand1^TAMRA (natural protein, UniProt Q86VP6 1-1230, looked up)
# chain: B1 chain
# modifications: TAMRA (site not stated)
# How the values were obtained:
# ^CFPCul1–Rbx1 = ^CFPCul1–Rbx1 (UniProt Q13616 1-776; P62877 1-108); test: FRET or BRET
# GST-Rbx1–Cul1 = GST-Rbx1–Cul1 (UniProt P62877 1-108; Q13616 1-776); test: pull-down
# Chain of GST-Rbx1–Cul1 (P62877 whole entry, chain 1 of 2): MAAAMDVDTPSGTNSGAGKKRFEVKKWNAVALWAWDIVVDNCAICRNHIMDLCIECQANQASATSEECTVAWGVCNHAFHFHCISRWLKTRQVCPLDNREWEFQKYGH
# Chain of GST-Rbx1–Cul1 (Q13616 whole entry, chain 2 of 2): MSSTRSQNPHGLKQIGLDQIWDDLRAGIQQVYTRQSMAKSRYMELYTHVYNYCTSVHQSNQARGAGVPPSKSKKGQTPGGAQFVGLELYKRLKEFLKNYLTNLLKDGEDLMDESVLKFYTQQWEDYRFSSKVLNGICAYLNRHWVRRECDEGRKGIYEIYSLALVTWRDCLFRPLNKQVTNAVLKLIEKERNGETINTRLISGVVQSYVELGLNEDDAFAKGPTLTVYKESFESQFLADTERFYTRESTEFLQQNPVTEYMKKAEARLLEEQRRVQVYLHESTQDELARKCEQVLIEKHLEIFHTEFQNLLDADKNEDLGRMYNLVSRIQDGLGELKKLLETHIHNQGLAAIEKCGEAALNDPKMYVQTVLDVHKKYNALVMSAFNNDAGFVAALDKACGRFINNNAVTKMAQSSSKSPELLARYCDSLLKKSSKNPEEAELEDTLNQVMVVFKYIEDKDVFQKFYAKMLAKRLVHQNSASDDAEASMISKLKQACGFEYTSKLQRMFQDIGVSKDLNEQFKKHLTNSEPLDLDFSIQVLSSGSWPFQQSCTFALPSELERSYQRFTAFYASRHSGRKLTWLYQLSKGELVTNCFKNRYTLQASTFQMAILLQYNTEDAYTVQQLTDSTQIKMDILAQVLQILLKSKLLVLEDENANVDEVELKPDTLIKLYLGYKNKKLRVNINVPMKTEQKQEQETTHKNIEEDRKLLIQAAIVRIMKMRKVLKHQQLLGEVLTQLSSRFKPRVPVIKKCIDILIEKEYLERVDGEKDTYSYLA
# Chain of ^CFPCul1–Rbx1 (Q13616 whole entry, chain 1 of 2): as the sequence (Q13616 whole entry, chain 2 of 2) above
# Chain of ^CFPCul1–Rbx1 (P62877 whole entry, chain 2 of 2): as the sequence (P62877 whole entry, chain 1 of 2) above
Binder,Kd (^CFPCul1–Rbx1),koff (GST-Rbx1–Cul1)
B1,≤ 53 nM,
B2,,1.2e-05 s⁻¹
